Here are results for eight molecules from patent US5668264, “High affinity PDGF nucleic acid ligands” (NeXstar Pharmaceuticals, Inc.).

The target of data set [1] is T1, PDGF AB (Homo sapiens, UniProt P04085;P01127 P04085:87-211,P01127:82-190). The data set is described as follows: filter; biphasic, higher affinity component. The settings on record: tags: R&D Systems 222-AB; chain copies: A/B chain heterodimer (inferred). Here is the method: (§1) 22: 1859), and the equilibrium dissociation constants were determined by nitrocellulose filter binding. […] […]-[…]-3') SEQ ID NO: 88, and 26t (5'-[…] T-3') SEQ ID NO: 89.
(§2) The binding data were analyzed according the formalism described in Jellinek et al., 1994: supra.

The target of the next data set is PDGF BB (UniProt P01127 P01127:82-190). The data set is described as follows: filter; biphasic, higher affinity component. The settings on record: chain copies: BB homodimer (inferred). Here is the method: as §1, §2
Data set [2] concerns the target T1, PDGF AB. In words: filter; among seven highest affinity ligands; data not shown. The settings on record: tags: R&D Systems 222-AB; chain copies: A/B chain heterodimer (inferred).
The target in the next data set is PDGF AA (UniProt P04085 P04085:87-211). The data set is described as follows: filter; monophasic. The following applies: chain copies: AA homodimer (inferred). The text has this:
[…]-[…]-3') SEQ ID NO: 88, and 26t (5'-[…] T-3') SEQ ID NO: 89.

PDGF BB, sequence (P01127 82-190, one chain of several): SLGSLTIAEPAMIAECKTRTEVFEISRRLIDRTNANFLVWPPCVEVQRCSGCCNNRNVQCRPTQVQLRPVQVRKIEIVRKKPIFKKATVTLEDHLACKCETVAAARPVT
T1 sequence (P01127 82-190, chain 2 of 2, other chains not shown): as the sequence (P01127 82-190, one chain of several) above

As for TACTCAGGGCACTGCAAGCAATTGTGGTCCCAATGGGCTGAGTAT (ssDNA, 3'-3' inverted T at 3' end) [41t], the figures for the Kd with PDGF AB [1] and with PDGF BB were 0.051 nM and 0.056 nM, respectively.

B1: ssDNA ligand 40 (ssDNA)
DNA: ATCCGCCTGATTAGCGATACTAGTGGAACAGGGCACGGAGAGTCAAACTTTGGTTTCCCCCACTTGAGCAAAATCACCTGCAGGGG
Take B1: the binding result with PDGF AB [2] is listed as “binds”.

B2: ssDNA ligand 26 (ssDNA)
DNA: ATCCGCCTGATTAGCGATACTAGAGGGGAAGTAGGCTGCCTGACTCGAGAGAGTCCTCCCGACTTGAGCAAAATCACCTGCAGGGG
On to B2, for which the binding result in the data set with PDGF AB [2] is listed as “binds”.

Take TGGGAGGGCGCGTTCTTCGTGGTTACTTTTAGTCCCGT (ssDNA, 3'-3' inverted T at 3' end (described for truncated ligands)) [20t-a]: the Kd with PDGF AB [1] stood at 0.082 nM; with PDGF BB it was 0.09 nM.

B3: ssDNA ligand 14 (ssDNA)
DNA: ATCCGCCTGATTAGCGATACTAGGCTTGACAAAGGGCACCATGGCTTAGTGGTCCTAGTACTTGAGCAAAATCACCTGCAGGGG
Turning to B3, the binding result with PDGF AB [2] is listed as “binds”.

B4: ssDNA ligand 38 (ssDNA)
DNA: ATCCGCCTGATTAGCGATACTAAAGTCGTGCAGGGTCCCCTGGAAGCATCTCCGATCCCAGACTTGAGCAAAATCACCTGCAGGGG
For B4, in the data set with PDGF AB [2], the binding result is on record as “binds”.

CCACAGGCTACGGCACGTAGAGCATCACCATGATCCTGTGT (ssDNA, 3'-3' inverted T at 3' end) [36t]: the Kd with PDGF AB [1] was 0.082 nM; with PDGF BB, 0.054 nM; with PDGF AA it was 72 nM.

B5: ssDNA ligand 36 (ssDNA)
DNA: ATCCGCCTGATTAGCGATACTCCACAGGCTACGGCACGTAGAGCATCACCATGATCCTGTGACTTGAGCAAAATCACCTGCAGGGG
For the molecule B5, in the data set with PDGF AB [2], the binding result is “binds”.

Usually Kd stands for the concentration at which binding is half-saturated. High values mean weaker binding, low ones tighter binding.
